We go through 2 molecules from US20100196395A1 (Boehringer Ingelheim, published 2010).

Assay [1] has as its target T1, recombinant human IGF-1 (human, UniProt P05019 49-118).
T1 construct: mature; also called insulin-like growth factor-1
The assay can be described thus: SPR (Biacore), IGF coating method, bivalent antibody injected (avidity); IGF coated on the chip, bivalent antibody injected (avidity).

Assay [2] addresses T2, biotinylated IGF-1 (UniProt P05019 49-118, biotinylated (site not stated)).
T2 construct: also called IGF-1 ligand
The assay can be described thus: competition ELISA: antibody titrated against biotinylated IGF-1 binding to coated IGF-1R; antibody 40186; mass concentration.

Assay [3] has as its target T3, rat IGF-2 (rat, UniProt P01346 25-91).
T3 construct: bought reagent
Description: SPR (Biacore), antibody capture method, IGF antigen injected. Here is the method: (§1) The sensor chip is coated with approximately 1000 RU of the reference antibody in flow cell 1 and approximately 1000 RU of a rabbit-anti-human Fc-gamma-specific antibody in flow cell 2 using the coupling reagents from an amine coupling kit. A target of 1000 RU is set in the surface preparation wizard of the Biacore 3000 software at a flow rate of 5 μl/min. Running buffer used is HBS-EP. […] The IGF antigens are diluted to 500, 250, 125, 62.5 and 31.3 nM in running buffer (HCB) and the different antigen dilutions are run singly over Fc1 and Fc2 with random order. Blank runs using running buffer only are run in-between. A blank run curve is subtracted from each binding curve before affinity analysis. Data evaluation is performed using the BIAevaluation software (version 4.1, Biacore, Freiburg, Germany). The dissociation and association phases of the kinetics are fitted separately. For the separate fit of the kdiss values a time-frame of the initial 200-300 seconds in the dissociation phase is used (range of steady decrease of signal). For the separate fit of the kₐₛₛ values, initial time frames of approx 100 seconds are used (range of steady increase of signal) and for calculation the individual kdiss values are used with the 1:1 Langmuir association model. The average values with the standard deviations of the kinetic data together with the corresponding dissociation (KD) and association (KA) constants are calculated.
(§2) The analysis is initially performed by capturing the IGF antibodies on the sensor chip and injecting a range of antigen concentrations, thereby eliminating the possibility of an avidity effect.

Assay [4] addresses T4, recombinant human IGF-2 (human, UniProt P01344 25-91).
T4 construct: mature; also called insulin-like growth factor-2
The assay is described as above. Here is the method: as §1, §2

Assay [5] has as its target T5, murine IGF-2 (murine, UniProt P09535 25-91).
T5 construct: bought reagent; also called mouse IGF-2
The assay is described as above. Here is the method:
as §1, §2

The target of assay [6] is T6, rat IGF-1 (rat, UniProt P08025 49-118).
T6 construct: bought reagent
T6 sequence (P08025 49-118 limits assumed): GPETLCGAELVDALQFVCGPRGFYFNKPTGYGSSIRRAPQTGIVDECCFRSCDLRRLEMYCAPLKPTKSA
The description is as above. Here is the method: as §1, §2

In assay [7] the target is T7, murine IGF-1 (murine, UniProt P05017 49-118).
T7 construct: bought reagent; also called mouse IGF-1
The description is as above. Here is the method:
as §1, §2

The target in assay [8] is T1, recombinant human IGF-1. The description is as above. Here is the method:
as §1, §2

Assay [9] addresses T2, biotinylated IGF-1. The assay can be described thus: competition ELISA: antibody blocks binding of biotinylated IGF-1 to coated IGF-1R, fluorescence readout. Here is the method: To identify IGF antibodies that neutralize the ability of IGF-1 and IGF-2 to bind to the IGF-1R, an ELISA is established by coating plates with 1.5 μg/ml recombinant human IGF-1R (R&D Systems) which allows the binding of biotinylated IGF-1 and biotinylated IGF-2. Bound IGF-1 or IGF-2 is detected using alkaline phosphatase-conjugated streptavidin (1:10,000 dilution) (Roche). […] Antibody Fab fragments that block the binding of biotinylated ligand are identified by a reduction in fluorometric signal.

Assay [10] concerns the target T4, recombinant human IGF-2. Description: SPR (Biacore), IGF coating method, bivalent antibody injected (avidity). The method, then: (§3) Affinity constants are also determined for binding of the IGF antibodies to human IGF-1 and IGF-2 using a method where the IGF ligands are coated to the Biacore sensor chip and a range of antibody concentrations injected. The approximately 30-50-fold increase in the binding constants using this method compared with the initial antibody capture method is likely due to an avidity effect where both antibody binding domains interact with an IGF molecule.

The target in assay [11] is T1, recombinant human IGF-1. The assay is described as above. The method, then:
as §3

Assay [12] deals with recombinant human insulin (human, UniProt P01308 25-54; P01308 90-110). Description: ELISA titration of the IgG1 on coated human insulin, OD 450.
Chain of recombinant human insulin (P01308 25-54 limits assumed, chain 1 of 2): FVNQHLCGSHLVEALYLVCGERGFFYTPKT
Chain of recombinant human insulin (P01308 90-110 limits assumed, chain 2 of 2): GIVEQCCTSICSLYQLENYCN
In assay [13] the target is T7, murine IGF-1. The assay can be described thus: ELISA titration of the IgG1 on coated murine IGF-1, OD 450.
The target in assay [14] is T2, biotinylated IGF-1. Description: competition ELISA: antibody titrated against biotinylated IGF-1 binding to coated IGF-1R; antibody 40183; mass concentration.
The target of assay [15] is T6, rat IGF-1. Description: ELISA titration of the IgG1 on coated rat IGF-1, OD 450.
Assay [16] has as its target T5, murine IGF-2. Description: ELISA titration of the IgG1 on coated murine IGF-2, OD 450.
Assay [17] deals with T4, recombinant human IGF-2. Description: ELISA titration of the IgG1 on coated human IGF-2, OD 450.
In assay [18] the target is T3, rat IGF-2. The assay can be described thus: ELISA titration of the IgG1 on coated rat IGF-2, OD 450.

T3 sequence (P01346 25-91 limits assumed): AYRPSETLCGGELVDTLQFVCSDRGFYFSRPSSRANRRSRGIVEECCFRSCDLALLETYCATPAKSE

B1: antibody 40186 (antibody, human IgG1, lambda, V domains shown)
VH: QVELVESGGGLVQPGGSLRLSCAASGFTFSNYWMHWVRQAPGKGLEWVSGISGWSSWTYYADSVKGRFTISRDNSKNTLYLQMNSLRAEDTAVYYCARFGIDAYTKVYFDYWGQGTLVTVSS
VL: DIELTQPPSVSVAPGQTARISCSGDNIPLKYVSWYQQKPGQAPVLVIHDDNKRPSGIPERFSGSNSGNTATLTISGTQAEDEADYYCQSWASTGVVFGGGTKLTVLG
notes: Fully human IgG1 / Ig lambda from the HuCAL Gold library
Regarding B1, the Ka in the assay with recombinant human IGF-1 [1] was 1.22e+10 M⁻¹; with rat IGF-2 [3], 1.67e+08 M⁻¹; with recombinant human IGF-2 [4] it was 2.86e+08 M⁻¹; in the assay with murine IGF-2 [5] it was 1.08e+08 M⁻¹; in the assay with rat IGF-1 [6], 3.67e+08 M⁻¹; in the assay with murine IGF-1 [7] it was 1.44e+08 M⁻¹. In addition, the values for the Ka with recombinant human IGF-1 [8] and in the assay with recombinant human IGF-2 [10] were 2.16e+08 M⁻¹ and 1.45e+10 M⁻¹, respectively. The molecule further returned an IC50 with biotinylated IGF-1 [2] of roughly 5 ng/mL. For the same molecule, the Kd with rat IGF-2 [3] worked out at 6.49 nM; in the assay with recombinant human IGF-2 [4], 3.62 nM; with murine IGF-2 [5], 9.56 nM; with rat IGF-1 [6], 2.76 nM; in the assay with murine IGF-1 [7], 7.1 nM; with recombinant human IGF-1 [8] it was 4.66 nM. The Kd with recombinant human IGF-2 [10] turned out to be 0.072 nM; with recombinant human IGF-1 [11], 0.14 nM. Also, the koff in the assay with rat IGF-2 [3] worked out at 0.00351 s⁻¹; with recombinant human IGF-2 [4] it was 0.00362 s⁻¹; with murine IGF-2 [5], 0.00586 s⁻¹; in the assay with rat IGF-1 [6], 0.00301 s⁻¹; with murine IGF-1 [7], 0.00329 s⁻¹; with recombinant human IGF-1 [8], 0.0027 s⁻¹. In addition, the koff in the assay with recombinant human IGF-2 [10] worked out at 0.000164 s⁻¹; in the assay with recombinant human IGF-1 [11] it was 0.00023 s⁻¹. For the same molecule, the kon worked out at 602000 M⁻¹ s⁻¹ in the assay with rat IGF-2 [3]; 1.03e+06 M⁻¹ s⁻¹ in the assay with recombinant human IGF-2 [4]; 632000 M⁻¹ s⁻¹ in the assay with murine IGF-2 [5]; 1.1e+06 M⁻¹ s⁻¹ with rat IGF-1 [6]; 466000 M⁻¹ s⁻¹ with murine IGF-1 [7]; 581000 M⁻¹ s⁻¹ with recombinant human IGF-1 [8]. Moreover, the kon with recombinant human IGF-2 [10] was determined as 2.26e+06 M⁻¹ s⁻¹; in the assay with recombinant human IGF-1 [11] it was 2.1e+06 M⁻¹ s⁻¹. The “IC50 (read off the curve)” value with biotinylated IGF-1 [9] was roughly 5 ng/mL. In addition, the binding result in assay [12] is given as “no binding (tested: 100 ng/ml)”.

B2: antibody 40183 (antibody, human IgG1, lambda, V domains shown)
VH: QVELVESGGGLVQPGGSLRLSCAASGFTWSSFAMSWVRQAPGKGLEWVSYISYLGSYTGYADSVKGRFTISRDNSKNTLYLQMNSLRAEDTAVYYCARGTKFDYWGQGTLVTVSS
VL: DIVLTQPPSVSGAPGQRVTISCTGSSSNIGTYDVHWYQQLPGTAPKLLIYSNSKRPSGVPDRFSGSKSGTSASLAITGLQSEDEADYYCSITRVFGGGTKLTVLG
notes: Fully human IgG1 / Ig lambda
For B2, the binding result with murine IGF-1 [13] is given as “binds”; with rat IGF-1 [15] it was “binds”; in [12] it was “no binding (tested: 100 ng/ml)”; with murine IGF-2 [16] it was “binds”; in the assay with recombinant human IGF-2 [17], “binds”; with rat IGF-2 [18], “binds”. The “IC50 (read off the curve)” value with biotinylated IGF-1 [9] is roughly 3 ng/mL. This molecule also came in with an IC50 with biotinylated IGF-1 [14] of roughly 5 ng/mL.
